Residue numbers refer to the chain shown, from its start. Numbers in names are those of the source.
T1: FcgRIIa H (human, UniProt P12318 34-217)
T1 construct: extracellular domain; also called FcγRIIa H; FcγRIIa type H
T1 sequence (looked up): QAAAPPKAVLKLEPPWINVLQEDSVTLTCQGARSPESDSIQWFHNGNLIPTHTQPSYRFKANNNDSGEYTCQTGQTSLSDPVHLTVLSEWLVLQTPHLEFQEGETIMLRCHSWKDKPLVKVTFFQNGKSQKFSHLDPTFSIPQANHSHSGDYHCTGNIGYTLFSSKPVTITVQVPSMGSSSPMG

T2: FcgRIIa R (human, UniProt P12318 34-217)
T2 construct: extracellular domain; also called FcγRIIa R; FcγRIIa type R
T2 sequence (looked up): T1 sequence (looked up) with H134R

T3: FcgRIIb (human, UniProt P31994 43-217)
T3 construct: extracellular domain; Soluble extracellular domain with C-terminal His tag, expressed in FreeStyle293 cells; also called FcγRIIb; 2b; not shown: His tag at the C terminus
T3 sequence (looked up): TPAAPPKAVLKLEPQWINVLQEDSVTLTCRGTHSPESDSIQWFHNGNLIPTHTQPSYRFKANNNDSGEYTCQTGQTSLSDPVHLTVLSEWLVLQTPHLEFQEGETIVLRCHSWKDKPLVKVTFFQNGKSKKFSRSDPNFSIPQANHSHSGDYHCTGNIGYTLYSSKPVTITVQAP

T4: FcgRIIaH (human, UniProt P12318 34-217)
T4 construct: extracellular domain; Soluble extracellular domain with C-terminal His tag, expressed in FreeStyle293 cells; also called FcγRIIa H; FcgRIIa type H; not shown: His tag at the C terminus
T4 sequence (looked up): T1 sequence (looked up)

T5: FcgRIIaR (human, UniProt P12318 34-217)
T5 construct: extracellular domain; Soluble extracellular domain with C-terminal His tag, expressed in FreeStyle293 cells; also called FcγRIIa R; FcgRIIa type R; not shown: His tag at the C terminus
T5 sequence (looked up): T1 sequence (looked up) with H134R

B1: H240-Kn067/H240-Hl136/L73-k0 (antibody, human IgG1, kappa)
heavy 1: QDQLVQSGAEVKKPGASVKVSCKASGFNIKDTYIQWVRQAPGQGLEWMGRIDPLRKQTKYREKFEGRVTITADTSTNTAYMELSSLRSEDTAVYYCVRSGREFDYWGQGTLVTVSSASTKGPSVFPLAPSSKSTSGGTAALGCLVKDYFPEPVTVSWNSGALTSGVHTFPAVLQSSGLYSLSSVVTVPSSSLGTQTYICNVNHKPSNTKVDKKVEPKSCDKTHTCPPCPAPEYYWGPSVFLFPPKPKDTLMISRTPEVTCVVVDVSDEDPEVKFNWYVDGVEVHNAKTKPREEQYNATYRVVSVLTVLHQDWLNGKEYKCKVSNKDLPAPIEKTISKAKGQPREPQVCTLPPSRDELTKNQVSLWCLVKGFYPSDIAVEWESNGQPENNYKTTPPVLDSDGSFFLYSKLTVDKSRWQQGNVFSCSVMHEALHNHYTQKSLSLSP
heavy 2: B1 heavy 1 with C348Y, D355C, W365S, L367A, Y406V
light: DIQMTQSPSSLSASVGDRVTITCRASQDIHKYIAWYQQKPGQAPRLLIQYTSTLQPGVPSRFSGSGSGTDYTFTISSLQPEDIATYYCLQYEQLRTFGGGTKVEIKRTVAAPSVFIFPPSDEQLKSGTASVVCLLNNFYPREAKVQWKVDNALQSGNSQESVTEQDSKDSTYSLSSTLTLSKADYEKHKVYACEVTHQGLSSPVTKSFNRGEC
notes: Called homodimerized: both H chains have L234Y/L235Y/G236W/H268D/S298A/A327D
B2: H240-Kn133/H240-Hl068/L73-k0 (antibody, human IgG1, kappa)
heavy 1: B1 heavy 1 with Y233L, Y234L, W235G, D267H, D269E, A297S, K325D, D326A, A329K, K333E
heavy 2: QDQLVQSGAEVKKPGASVKVSCKASGFNIKDTYIQWVRQAPGQGLEWMGRIDPLRKQTKYREKFEGRVTITADTSTNTAYMELSSLRSEDTAVYYCVRSGREFDYWGQGTLVTVSSASTKGPSVFPLAPSSKSTSGGTAALGCLVKDYFPEPVTVSWNSGALTSGVHTFPAVLQSSGLYSLSSVVTVPSSSLGTQTYICNVNHKPSNTKVDKKVEPKSCDKTHTCPPCPAPELLGGPSVFLFPPKPKDTLMISRTPEVTCVVVDVSHEEPEVKFNWYVDGVEVHNAKTKPREEQYNSTYRVVSVLTVLHQDWLNGKEYKCKVSNDALPKPIEETISKAKGQPREPQVYTLPPSRCELTKNQVSLSCAVKGFYPSDIAVEWESNGQPENNYKTTPPVLDSDGSFFLVSKLTVDKSRWQQGNVFSCSVMHEALHNHYTQKSLSLSP
light: B1 light
notes: Called homodimerized: both H chains have D270E/K326D/A330K/K334E
B3: IL6R-BP253/IL6R-L (antibody, human IgG1, kappa)
heavy: QVQLQESGPGLVKPSETLSLTCAVSGHSISHDHAWSWVRQPPGEGLEWIGFISYSGITNYNPSLQGRVTISRDNSKNTLYLQMNSLRAEDTAVYYCARSLARTTAMDYWGEGTLVTVSSASTKGPSVFPLAPSSKSTSGGTAALGCLVKDYFPEPVTVSWNSGALTSGVHTFPAVLQSSGLYSLSSVVTVPSSSLGTQTYICNVNHKPSNTKVDKKVEPKSCDKTHTCPPCPAPELLGGPSVFLFPPKPKDTLMISRTPEVTCVVVDVEHEDPEVKFNWYVDGVEVHNAKTKPREEQYNSTYRVVSVLTVLHQDWLNGKEYKCKVSNKAFPAPIEKTISKAKGQPREPQVYTLPPSRDELTKNQVSLTCLVKGFYPSDIAVEWESNGQPENNYKTTPPVLDSDGSFFLYSKLTVDKSRWQQGNVFSCSVMHEALHNHYTQESLSLSP
light: not shown
notes: Homodimerized antibody
B4: IL6R-AP002/IL6R-BP256/IL6R-L (antibody, human IgG1, kappa)
heavy 1: QVQLQESGPGLVKPSETLSLTCAVSGHSISHDHAWSWVRQPPGEGLEWIGFISYSGITNYNPSLQGRVTISRDNSKNTLYLQMNSLRAEDTAVYYCARSLARTTAMDYWGEGTLVTVSSASTKGPSVFPLAPSSKSTSGGTAALGCLVKDYFPEPVTVSWNSGALTSGVHTFPAVLQSSGLYSLSSVVTVPSSSLGTQTYICNVNHKPSNTKVDKKVEPKSCDKTHTCPPCPAPDLLGDDSVFLFPPKPKDTLMISRTPEVTCVVVDVSDEDGEVKFNWYVDGVEVHNAKTKPREEQYNSTYRVVSVLTVLHQDWLNGKEYKCKVSNKALPRPIEKTISKAKGQPREPQVYTLPPSRKELTKNQVSLTCLVKGFYPSDIAVEWESNGQPENNYKTTPPVLDSDGSFFLYSKLTVDKSRWQQGNVFSCSVMHEALHNRYTQKSLSLSP
heavy 2: B4 heavy 1 with S241D, K358D, R437H, K441E
light: not shown
notes: Heterodimerized antibody (two different H chains, same variable region), S239D in one H chain only
B5: IL6R-AP002/IL6R-BP257/IL6R-L (antibody, human IgG1, kappa)
heavy 1: B4 heavy 1
heavy 2: B4 heavy 1 with S241E, K358D, R437H, K441E
light: not shown
notes: Heterodimerized antibody (two different H chains, same variable region), S239E in one H chain only

Tests used:
FcgRIIIa V = target: T6, FcgRIIIa V (human, UniProt P08637 17-208); test: SPR (Biacore), antibody captured, FcgR as analyte
T6 construct: extracellular domain; polymorphic site made after J. Clin. Invest; also called FcγRIIIa V
T6 sequence (P08637 17-208 F176V limits assumed): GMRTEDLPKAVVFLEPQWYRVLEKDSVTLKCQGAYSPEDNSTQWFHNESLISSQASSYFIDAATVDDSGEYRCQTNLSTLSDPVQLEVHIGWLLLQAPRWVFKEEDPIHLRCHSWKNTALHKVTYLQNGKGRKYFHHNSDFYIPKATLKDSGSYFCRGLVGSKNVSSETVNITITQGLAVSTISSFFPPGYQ
Procedure: (§1) Then, H240-Hl136 (SEQ ID NO: 97) resulting from introduction of L234Y/L235Y/G236W/H268D/S298A/A327D into H240-Hl033 and H240-Kn133 (SEQ ID NO: 98) resulting from introduction of D270E/K326D/A330K/K334E into H240-Kn033 were constructed according to the method described in Reference Example 1.
(§2) Analysis of interaction between objective antibody and the FcγR was carried out using Biacore T100 (GE Healthcare), Biacore T200, Biacore A100, and Biacore 4000. HBS-EP+ (GE Healthcare) was used as the running buffer, and the measurement temperature was set to 25° C. Chips produced by immobilizing the antigen peptide by the amine coupling method to a Series S sensor Chip CM5 (GE Healthcare), chips produced by allowing preliminarily biotinylated antigen peptides to interact with and immobilize onto a Series S Sensor Chip SA (certified) (GE Healthcare), chips produced by immobilizing Protein L (ACTIGEN, BioVision) to Series S Sencor Chip CM5 (GE Healthcare), or chips produced by immobilizing Protein A/G (Thermo Scientific) to Series S Sencor Chip CM5 (GE Healthcare) were used. Antibodies of interest were captured onto these chips, and allowed to interact to each FcγR diluted with running buffer.

FcgRIIa H = target: T1, FcgRIIa H; test: SPR (Biacore), antibody captured, FcgR as analyte
Procedure: as §1, §2

FcgRIIIa F = target: T7, FcgRIIIa F (human, UniProt P08637 17-208); test: SPR (Biacore), antibody captured, FcgR as analyte
T7 construct: extracellular domain; polymorphic site made after J. Clin. Invest; also called FcγRIIIa F
T7 sequence (P08637 17-208): as the sequence (P08637 17-208 F176V limits assumed) above, with V160F counted along it
Procedure: as §1, §2

FcgRIIa R = target: T2, FcgRIIa R; test: SPR (Biacore), antibody captured, FcgR as analyte
Procedure: as §1, §2

FcgRIIb [1] = target: T3, FcgRIIb; test: SPR (Biacore); KD of the variant for FcgRIIaR divided by its KD for FcgRIIb
FcgRIIaH = target: T4, FcgRIIaH; test: SPR (Biacore), antibody captured on chip, FcgR extracellular domain as analyte
FcgRIIb [2] = target: T3, FcgRIIb; test: as above
FcgRIIaR = target: T5, FcgRIIaR; test: as above

Binder	Kd (FcgRIIIa V)	Kd (FcgRIIa H)	Kd (FcgRIIIa F)	Kd (FcgRIIa R)	KD(IIaR)/KD(IIb) (FcgRIIb [1])	Relative KD (KD of IL6R-B3/IL6R-L divided by KD of the variant) (FcgRIIaH)	Relative KD (KD of IL6R-B3/IL6R-L divided by KD of the variant) (FcgRIIb [2])	Relative KD (KD of IL6R-B3/IL6R-L divided by KD of the variant) (FcgRIIaR)
B1	340 nM	2100 nM	960 nM	950 nM	–	–	–	–
B2	14 nM	160 nM	120 nM	450 nM	–	–	–	–
B3	–	–	–	–	0.3	0.9	349	480
B4	–	–	–	–	34.3	0.2	752	7.7
B5	–	–	–	–	27.7	0.2	657	8.3

Reference: patent US20150344570A1 (published 2015)
